Data reported in patent US20260008857A1 (FLAGSHIP PIONEERING INNOVATIONS VI, published 2026).
Positions count from the first letter of the chain named.

T1: human IL-4Rα (interleukin 4 receptor subunit alpha) (human, UniProt P24394 26-232, limits assumed)
T1 sequence (looked up): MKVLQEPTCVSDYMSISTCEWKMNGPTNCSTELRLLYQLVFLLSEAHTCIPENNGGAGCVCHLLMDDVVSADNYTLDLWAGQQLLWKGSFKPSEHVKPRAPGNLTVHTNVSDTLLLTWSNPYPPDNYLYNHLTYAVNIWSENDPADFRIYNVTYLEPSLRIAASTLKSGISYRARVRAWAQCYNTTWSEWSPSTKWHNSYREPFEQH

T2: IL-4Rα on human primary cells (primary B cells, whole blood B and T cells, PBMCs) (human, UniProt P24394 26-825)
T2 sequence (looked up): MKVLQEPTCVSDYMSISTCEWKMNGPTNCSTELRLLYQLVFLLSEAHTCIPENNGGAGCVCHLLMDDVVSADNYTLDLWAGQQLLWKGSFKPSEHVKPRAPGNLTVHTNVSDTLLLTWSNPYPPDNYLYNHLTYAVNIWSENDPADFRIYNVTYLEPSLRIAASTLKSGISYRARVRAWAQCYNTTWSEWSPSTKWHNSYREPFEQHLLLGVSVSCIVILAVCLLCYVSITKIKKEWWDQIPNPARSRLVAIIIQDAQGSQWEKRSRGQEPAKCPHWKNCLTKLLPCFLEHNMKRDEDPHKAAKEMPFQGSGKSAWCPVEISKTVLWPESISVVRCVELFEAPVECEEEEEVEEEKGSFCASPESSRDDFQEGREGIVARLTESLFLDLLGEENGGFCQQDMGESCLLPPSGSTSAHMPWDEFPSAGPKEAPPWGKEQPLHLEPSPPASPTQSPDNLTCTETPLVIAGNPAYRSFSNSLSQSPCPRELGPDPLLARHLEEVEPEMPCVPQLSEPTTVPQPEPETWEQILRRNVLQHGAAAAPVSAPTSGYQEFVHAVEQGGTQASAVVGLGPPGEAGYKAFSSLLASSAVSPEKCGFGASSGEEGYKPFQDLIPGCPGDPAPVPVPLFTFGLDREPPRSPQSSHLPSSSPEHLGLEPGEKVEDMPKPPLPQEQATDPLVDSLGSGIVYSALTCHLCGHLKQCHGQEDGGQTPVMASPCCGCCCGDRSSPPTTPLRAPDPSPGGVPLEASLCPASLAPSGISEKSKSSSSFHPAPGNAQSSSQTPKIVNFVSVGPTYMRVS

B1: AB-10c (antibody, human IgG4 S228P, kappa, V domains shown)
VH: EVQLVESGGGLEQPGGSLRLSCAGSGFTFRDYAMTWVRQAPGKGLEWVSSISGSGDKTYYADSVKGRFTISRDNSKNTLYLQMNSLRAEDTAVYYCARDRLSSSARPVYVGLDVWGQGTTVTVSS
VL: DIVMTQSPLSLPVTPGEPASISCRSSQSLLYSVGKNYLDWYLQKSGQSPQLLIYLASNRASGVPDRFSGSGSGTDFTLKISRVEAEDVGFYYCMQDLFHPYTFGQGTKLEIKR
notes: hIgG4 WT, kappa
B2: AB-6c (antibody, human IgG4 S228P, kappa)
heavy: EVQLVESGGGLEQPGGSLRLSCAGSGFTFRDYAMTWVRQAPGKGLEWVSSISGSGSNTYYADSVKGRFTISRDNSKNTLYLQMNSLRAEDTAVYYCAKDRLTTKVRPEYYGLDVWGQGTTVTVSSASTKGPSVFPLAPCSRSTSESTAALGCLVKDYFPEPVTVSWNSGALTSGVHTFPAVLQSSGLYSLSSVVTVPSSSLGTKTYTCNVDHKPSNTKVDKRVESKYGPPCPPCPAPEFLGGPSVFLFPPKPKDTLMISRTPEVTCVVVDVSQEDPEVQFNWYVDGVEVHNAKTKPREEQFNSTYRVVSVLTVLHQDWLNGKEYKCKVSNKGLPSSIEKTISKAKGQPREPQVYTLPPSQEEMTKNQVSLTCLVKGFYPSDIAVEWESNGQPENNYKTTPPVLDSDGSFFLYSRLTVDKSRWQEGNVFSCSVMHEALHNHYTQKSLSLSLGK
light: DIVMTQSPLSLPVTPGEPASISCRSSQSLLYSIGYNYLDWYLQKSGQSPQLLIYLASNRASGVPDRFSGSGSGTDFTLKISRVEAEDVGFYYCMQSLQTPYTFGQGTKLEIKRTVAAPSVFIFPPSDEQLKSGTASVVCLLNNFYPREAKVQWKVDNALQSGNSQESVTEQDSKDSTYSLSSTLTLSKADYEKHKVYACEVTHQGLSSPVTKSFNRGEC
notes: hIgG4 WT, kappa
B3: AB-2c (antibody, human IgG4 S228P, kappa, V domains shown)
VH: B1 VH with D56S, K57N, S102T, S103A, S104A, A105V, V108Y, V110Y
VL: B1 VL with L30D, V33S, K35Y, D96S, F98Q, H99T
notes: hIgG4 WT, kappa
B4: AB-8c (antibody, human IgG4 S228P, kappa, V domains shown)
VH: B1 VH with D56S, K57N, R98K, S102T, S103A, A105V, V108N, V110Y
VL: B1 VL with V33E, K35Y, D96S, F98T, H99T
notes: hIgG4 WT, kappa
B5: AB-9c (antibody, human IgG4 S228P, kappa)
heavy: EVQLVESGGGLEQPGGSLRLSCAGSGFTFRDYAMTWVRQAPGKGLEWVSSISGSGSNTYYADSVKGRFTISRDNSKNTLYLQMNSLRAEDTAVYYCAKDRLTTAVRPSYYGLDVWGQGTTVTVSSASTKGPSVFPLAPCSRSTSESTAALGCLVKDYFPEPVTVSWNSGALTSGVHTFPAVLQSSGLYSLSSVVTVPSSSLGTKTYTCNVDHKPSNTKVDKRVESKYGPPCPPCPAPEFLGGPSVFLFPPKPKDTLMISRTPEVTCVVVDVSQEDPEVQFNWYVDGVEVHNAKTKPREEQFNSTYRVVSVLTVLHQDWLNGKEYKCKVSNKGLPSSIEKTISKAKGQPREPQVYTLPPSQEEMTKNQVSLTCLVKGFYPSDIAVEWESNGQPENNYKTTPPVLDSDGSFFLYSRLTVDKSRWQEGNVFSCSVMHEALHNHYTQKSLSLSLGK
light: B2 light with I33L
notes: hIgG4 WT, kappa
B6: AB-4c (antibody, human IgG4 S228P, kappa)
heavy: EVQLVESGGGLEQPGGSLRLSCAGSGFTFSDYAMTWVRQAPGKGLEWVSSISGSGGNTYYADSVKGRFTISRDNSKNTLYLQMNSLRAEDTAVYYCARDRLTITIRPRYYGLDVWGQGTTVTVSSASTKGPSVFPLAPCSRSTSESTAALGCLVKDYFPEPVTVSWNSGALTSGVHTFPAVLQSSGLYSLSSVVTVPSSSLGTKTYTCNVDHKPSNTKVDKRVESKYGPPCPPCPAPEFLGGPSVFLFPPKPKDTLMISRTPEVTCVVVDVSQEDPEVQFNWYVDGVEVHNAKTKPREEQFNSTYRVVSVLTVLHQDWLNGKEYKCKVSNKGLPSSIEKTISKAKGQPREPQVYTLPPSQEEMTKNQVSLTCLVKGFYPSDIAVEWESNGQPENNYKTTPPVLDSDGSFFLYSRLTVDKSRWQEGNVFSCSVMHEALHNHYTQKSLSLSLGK
light: B2 light with I33T, S96A, Q98S
notes: hIgG4 WT, kappa
B7: AB-12c (antibody, human IgG4 S228P, kappa)
heavy: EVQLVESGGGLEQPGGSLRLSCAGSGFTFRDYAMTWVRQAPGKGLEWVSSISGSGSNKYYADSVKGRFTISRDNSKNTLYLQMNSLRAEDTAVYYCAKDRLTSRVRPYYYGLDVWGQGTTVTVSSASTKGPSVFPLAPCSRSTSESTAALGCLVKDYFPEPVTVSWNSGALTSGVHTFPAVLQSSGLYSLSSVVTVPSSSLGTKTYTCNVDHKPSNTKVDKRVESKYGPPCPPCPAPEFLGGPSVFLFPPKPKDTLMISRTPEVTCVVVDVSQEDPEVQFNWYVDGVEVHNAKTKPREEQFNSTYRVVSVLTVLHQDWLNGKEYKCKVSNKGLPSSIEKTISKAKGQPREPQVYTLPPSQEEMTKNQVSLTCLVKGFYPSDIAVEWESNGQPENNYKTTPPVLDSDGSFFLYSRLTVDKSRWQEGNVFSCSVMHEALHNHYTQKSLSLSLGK
light: B2 light with I33Q, Q98F
notes: hIgG4 WT, kappa
B8: AB-5c (antibody, human IgG4 S228P, kappa)
heavy: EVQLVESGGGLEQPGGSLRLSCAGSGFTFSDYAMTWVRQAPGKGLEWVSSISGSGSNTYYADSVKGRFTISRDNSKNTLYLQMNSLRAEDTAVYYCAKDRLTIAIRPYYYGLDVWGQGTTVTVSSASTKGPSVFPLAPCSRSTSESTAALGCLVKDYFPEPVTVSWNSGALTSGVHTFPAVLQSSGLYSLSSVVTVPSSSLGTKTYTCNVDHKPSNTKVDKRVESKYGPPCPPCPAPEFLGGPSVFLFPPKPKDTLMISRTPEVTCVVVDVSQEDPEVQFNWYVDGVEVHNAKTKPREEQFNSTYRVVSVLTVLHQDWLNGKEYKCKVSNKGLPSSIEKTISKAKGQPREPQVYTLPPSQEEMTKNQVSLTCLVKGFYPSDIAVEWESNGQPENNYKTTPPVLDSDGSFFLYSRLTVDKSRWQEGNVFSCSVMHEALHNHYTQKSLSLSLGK
light: B2 light with L30D, S96A
notes: hIgG4 WT, kappa
B9: AB-7c (antibody, human IgG4 S228P, kappa, V domains shown)
VH: B1 VH with D56S, K57T, R98K, S102T, S103A, A105V, V108I
VL: B1 VL with V33E, K35Y, D96T, F98K, H99T
notes: hIgG4 WT, kappa
B10: AB-11c (antibody, human IgG4 S228P, kappa, V domains shown)
VH: B1 VH with D56T, K57N, R98K, S103V, A105T, V108K, V110Y
VL: B1 VL with L30D, V33Y, K35Y, D96S, F98H, H99T
notes: hIgG4 WT, kappa
B11: AB-13c (antibody, human IgG4 S228P, kappa)
heavy: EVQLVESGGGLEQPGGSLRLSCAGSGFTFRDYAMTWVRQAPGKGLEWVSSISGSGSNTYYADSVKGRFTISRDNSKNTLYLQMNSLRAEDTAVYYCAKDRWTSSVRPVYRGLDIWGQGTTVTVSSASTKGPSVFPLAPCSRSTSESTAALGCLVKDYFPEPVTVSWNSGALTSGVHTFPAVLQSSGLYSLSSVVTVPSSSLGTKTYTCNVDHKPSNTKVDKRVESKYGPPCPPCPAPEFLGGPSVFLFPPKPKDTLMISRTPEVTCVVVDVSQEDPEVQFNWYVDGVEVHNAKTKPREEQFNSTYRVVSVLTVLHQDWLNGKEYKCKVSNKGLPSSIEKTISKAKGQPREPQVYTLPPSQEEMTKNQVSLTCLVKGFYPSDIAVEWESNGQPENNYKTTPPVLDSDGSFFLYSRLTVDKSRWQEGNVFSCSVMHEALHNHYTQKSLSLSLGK
light: B2 light with I33H, Q98Y
notes: hIgG4 wild type, kappa
B12: AB-13b (antibody, human IgG4 S228P, kappa)
heavy: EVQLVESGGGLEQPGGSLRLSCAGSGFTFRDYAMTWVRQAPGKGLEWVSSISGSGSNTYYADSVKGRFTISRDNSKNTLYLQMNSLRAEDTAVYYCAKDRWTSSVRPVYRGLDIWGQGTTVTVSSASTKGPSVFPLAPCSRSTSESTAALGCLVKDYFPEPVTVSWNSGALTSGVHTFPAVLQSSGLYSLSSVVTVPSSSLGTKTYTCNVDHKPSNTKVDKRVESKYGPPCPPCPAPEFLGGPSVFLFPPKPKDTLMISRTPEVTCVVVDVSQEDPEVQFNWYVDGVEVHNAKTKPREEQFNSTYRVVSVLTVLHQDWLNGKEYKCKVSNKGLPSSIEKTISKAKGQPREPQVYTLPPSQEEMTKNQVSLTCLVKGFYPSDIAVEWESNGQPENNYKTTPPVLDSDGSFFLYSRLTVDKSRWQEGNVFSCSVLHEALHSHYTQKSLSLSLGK
light: B2 light with I33H, Q98Y
notes: hIgG4 LS variant, kappa
B13: AB-13a (antibody, human IgG4 S228P, kappa)
heavy: EVQLVESGGGLEQPGGSLRLSCAGSGFTFRDYAMTWVRQAPGKGLEWVSSISGSGSNTYYADSVKGRFTISRDNSKNTLYLQMNSLRAEDTAVYYCAKDRWTSSVRPVYRGLDIWGQGTTVTVSSASTKGPSVFPLAPCSRSTSESTAALGCLVKDYFPEPVTVSWNSGALTSGVHTFPAVLQSSGLYSLSSVVTVPSSSLGTKTYTCNVDHKPSNTKVDKRVESKYGPPCPPCPAPEFLGGPSVFLFPPKPKDTLYITREPEVTCVVVDVSQEDPEVQFNWYVDGVEVHNAKTKPREEQFNSTYRVVSVLTVLHQDWLNGKEYKCKVSNKGLPSSIEKTISKAKGQPREPQVYTLPPSQEEMTKNQVSLTCLVKGFYPSDIAVEWESNGQPENNYKTTPPVLDSDGSFFLYSRLTVDKSRWQEGNVFSCSVMHEALHNHYTQKSLSLSLGK
light: B2 light with I33H, Q98Y
notes: hIgG4 YTE variant, kappa
B14: AB-13d (antibody, human IgG1, kappa)
heavy: not shown
light: B2 light with I33H, Q98Y
notes: hIgG1, kappa
B15: AB-9d (antibody, human IgG1, kappa)
heavy chain: not shown
light chain: B2 light with I33L
notes: hIgG1 ('d')
B16: AB-1d (antibody, human IgG1, kappa, V domains shown)
VH: EVQLVESGGGLEQPGGSLRLSCAGSGFTFSDYAMTWVRQAPGKGLEWVSSISGSGGNTYYADSVKGRFTISRDNSKNTLYLQMNSLRAEDTAVYYCAKDALTIAIRPYYYGLDVWGQGTTVTVSS
VL: B1 VL with L30D, V33Y, K35Y, D96S, F98S, H99T
notes: hIgG1 ('d')
B17: Reference Antibody (antibody, human IgG4 S228P, kappa, V domains shown)
VH: B16 VH with S30R, A100R, T102S, A104T, Y108R
VL: B1 VL with V33I, K35Y, A56G, D96A, F98Q, H99T
B18: AB-3c (antibody, human IgG4 S228P, kappa)
heavy chain: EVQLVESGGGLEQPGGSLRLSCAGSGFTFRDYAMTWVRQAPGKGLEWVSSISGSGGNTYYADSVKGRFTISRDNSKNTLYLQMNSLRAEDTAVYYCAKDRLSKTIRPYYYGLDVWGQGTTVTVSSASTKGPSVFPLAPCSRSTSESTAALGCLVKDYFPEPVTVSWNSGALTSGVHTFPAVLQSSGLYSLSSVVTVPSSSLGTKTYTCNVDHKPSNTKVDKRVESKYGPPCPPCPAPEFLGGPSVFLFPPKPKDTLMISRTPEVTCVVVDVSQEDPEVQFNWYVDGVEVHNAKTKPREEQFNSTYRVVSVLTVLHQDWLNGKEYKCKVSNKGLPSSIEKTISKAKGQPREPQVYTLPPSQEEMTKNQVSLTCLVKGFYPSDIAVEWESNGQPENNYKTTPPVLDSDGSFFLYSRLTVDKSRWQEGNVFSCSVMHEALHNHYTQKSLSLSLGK
light chain: B2 light with I33T, A56G, Q98S
notes: hIgG4 WT ('c')

The binders below were run against T1, human IL-4Rα (interleukin 4 receptor …) (assay: SPR, Carterra LSA non-regenerative capture kinetics; antibody captured on goat anti-human polyclonal lawn, human IL-4Rα as analyte, 25 C, 1:1 model; average ± SD of technical replicates).

Binder | Kd [nM]
B1 | 546
B2 | ≤ 0.1
B3 | 50.7
B4 | 0.85
B5 | 0.63
B6 | 0.56
B7 | ≤ 0.09
B8 | 2.37
B9 | 0.3
B10 | 0.83
B11 | ≤ 0.12

The binders below were run against T1, human IL-4Rα (interleukin 4 receptor …) (assay: SPR, Biacore 8K+ multi-cycle capture kinetics; antibody captured on goat anti-human polyclonal surface, human IL-4Rα as analyte, 25 C, 1:1 model).

Binder | Kd [nM] | koff [s⁻¹] | kon [M⁻¹ s⁻¹]
B12 | 0.0249 | 2.19e-05 | 881000
B13 | 0.0333 | 2.59e-05 | 778000
B11 | 0.0266 | 2.22e-05 | 836000
B14 | 0.0326 | 2.57e-05 | 789000

These binders were tested against T1, human IL-4Rα (interleukin 4 receptor …) (assay: indirect ELISA on plate-coated recombinant human IL-4Rα (2 ug/mL), anti-human IgG Fc-HRP, A450).

Binder | EC50 (read off the curve) [nM] | binding result
B15 | ~0.02 | –
B16 | – | binds

These binders were tested against T2, IL-4Rα on human primary cells (primary …) (assay: cell-based or functional assay).

Binder | Inhibition of CD23 Expression by Primary B cells (IC50), Donor 13 [nM] | Inhibition of CD23 Expression by Primary B cells (IC50), Donor 52 [nM] | Inhibition of CD23 Expression by Primary B cells (IC50), Donor 53 [nM] | Inhibition of CD23 Expression by Primary B cells (IC50), Donor 56 [nM]
B17 | 22 | 11.9 | 18 | 29.8
B12 | 30.1 | 34.4 | 35.9 | 54.2
B13 | 27.5 | 17.8 | 40.6 | 54.4
B11 | 24.9 | 23 | 26.2 | 25.8

Target: T1, human IL-4Rα (interleukin 4 receptor …)
Assay: indirect ELISA on plate-coated recombinant human IL-4Rα (2 ug/mL), anti-human IgG Fc-HRP, A450
Remark: another data set of the same source

Binder | EC50 (read off the curve) [nM]
B18 | ~0.1
B5 | ~0.02
B11 | ~0.05
